Experiments:
chimera 3 (m,m,m) = molecular target: T1, chimera 3 (m,m,m) (mouse; human, UniProt P09581 21-292); test: binding ELISA, coated chimera
T1 construct: range 21-292; not shown: Fc portion of an IgG molecule
Method: (§1) Briefly, coat plates with 100 μL of 200 ng/mL human, mouse or chimera 1-7 proteins overnight.

mouse CSF-1R = molecular target: T2, mouse CSF-1R (mouse, UniProt P09581 20-511, limits assumed); test: binding ELISA, coated receptor protein
T2 construct: also called murine form of the receptor
T2 sequence (looked up): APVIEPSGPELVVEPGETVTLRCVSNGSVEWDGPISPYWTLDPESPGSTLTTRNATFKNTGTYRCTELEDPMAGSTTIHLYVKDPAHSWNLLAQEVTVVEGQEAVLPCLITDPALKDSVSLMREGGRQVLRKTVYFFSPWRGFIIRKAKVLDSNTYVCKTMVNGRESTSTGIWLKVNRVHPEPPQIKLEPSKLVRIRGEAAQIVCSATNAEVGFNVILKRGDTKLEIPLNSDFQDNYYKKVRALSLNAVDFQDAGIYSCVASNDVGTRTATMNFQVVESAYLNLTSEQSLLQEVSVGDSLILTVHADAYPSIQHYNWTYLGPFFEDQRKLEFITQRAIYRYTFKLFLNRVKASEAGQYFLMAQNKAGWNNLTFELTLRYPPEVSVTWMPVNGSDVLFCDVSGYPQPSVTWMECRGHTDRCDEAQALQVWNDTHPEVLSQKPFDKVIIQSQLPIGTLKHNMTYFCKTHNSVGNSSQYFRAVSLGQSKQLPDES
Method: as §1

T1 sequence (P09581 other isoform, or with tags, fused parts or gaps mutant): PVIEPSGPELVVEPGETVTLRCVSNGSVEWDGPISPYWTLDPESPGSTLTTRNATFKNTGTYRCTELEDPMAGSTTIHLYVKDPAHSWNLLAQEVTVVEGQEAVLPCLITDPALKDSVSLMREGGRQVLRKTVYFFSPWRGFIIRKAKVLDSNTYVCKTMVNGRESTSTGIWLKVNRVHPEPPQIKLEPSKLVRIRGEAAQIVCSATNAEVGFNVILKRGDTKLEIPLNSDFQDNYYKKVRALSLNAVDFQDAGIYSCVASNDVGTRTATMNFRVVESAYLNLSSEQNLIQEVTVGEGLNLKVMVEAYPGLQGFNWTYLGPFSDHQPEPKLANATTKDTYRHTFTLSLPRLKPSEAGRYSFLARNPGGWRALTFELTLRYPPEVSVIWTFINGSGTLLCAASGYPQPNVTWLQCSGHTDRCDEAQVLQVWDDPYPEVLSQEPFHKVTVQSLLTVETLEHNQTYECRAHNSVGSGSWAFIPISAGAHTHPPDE

binding result (chimera 3 (m,m,m)): no binding (tested: 100 nM)
binding result (mouse CSF-1R): no binding (tested: 100 nM)
B1: Antibody 1 (antibody, human IgG1, kappa, V domains shown)
VH: QDQLVESGGGVVQPGRSLRLSCAASGFTFSSYGMHWVRQAPGEGLEWVAVIWYDGSNKYYADSVKGRFTISRDNSKNTLYLQMNSLRAEDTAVYYCARGDYEVDYGMDVWGQGTTVTVAS
VL: AIQLTQSPSSLSASVGDRVTITCRASQGISNALAWYQQKPGKAPKLLIYDASSLESGVPSRFSGSGSGTDFTLTISSLQPEDFATYYCQQFNSYPWTFGQGTKVEIKR
notes: also called anti-CSF-1R Antibody 1

— patent US20110243947A1 (Eli Lilly, published 2011)
